Results published in US20170015742A1 (published 2017).

B1: 1E3.4_GS_9E8.4 (bispecific antibody, human IgG1, kappa, L234A L235A)
heavy: EIQLVQSGSELKKPGASVKVSCKASGYPFTNSGMYWVKQAPGQGLEYMGWINTEAGKPTYADDFKGRFVFSLDTSVSTAYLQISSLKAEDTAVYFCARWGYISDNSYGWFDYWGQGTLVTVSSGGGGSGGGGSEVTLRESGPALVKPTQTLTLTCTFSGFSLSTYGMGVGWIRQPPGKALEWLANIWWDDDKYYNPSLKNRLTISKDTSKNQVVLTMTNMDPVDTATYYCARIESIGTTYSFDYWGQGTMVTVSSASTKGPSVFPLAPSSKSTSGGTAALGCLVKDYFPEPVTVSWNSGALTSGVHTFPAVLQSSGLYSLSSVVTVPSSSLGTQTYICNVNHKPSNTKVDKKVEPKSCDKTHTCPPCPAPEAAGGPSVFLFPPKPKDTLMISRTPEVTCVVVDVSHEDPEVKFNWYVDGVEVHNAKTKPREEQYNSTYRVVSVLTVLHQDWLNGKEYKCKVSNKALPAPIEKTISKAKGQPREPQVYTLPPSREEMTKNQVSLTCLVKGFYPSDIAVEWESNGQPENNYKTTPPVLDSDGSFFLYSKLTVDKSRWQQGNVFSCSVMHEALHNAYTQKSLSLSPGK
light: ATQLTQSPSSLSASVGDRVTISCRASEGVYSYMHWYQQKPGKQPKLLIYKASNLASGVPSRFSGSGSGTDFTLTISSLQPEDFATYFCHQNWNDPLTFGQGTKLEIKGGSGGGGSGGEFVLTQSPGTLSLSPGERATLSCERSSGDIGDSYVSWYQQKPGQAPRLVIYADDQRPSGIPDRFSGSGSGTDFTLTISRLEPEDFAVYYCQSYDINIDIVFGGGTKVEIKRTVAAPSVFIFPPSDEQLKSGTASVVCLLNNFYPREAKVQWKVDNALQSGNSQESVTEQDSKDSTYSLSSTLTLSKADYEKHKVYACEVTHQGLSSPVTKSFNRGEC
B2: CL-33675_GS_9E10.1 (bispecific antibody, human IgG1, kappa, L234A L235A)
heavy: EVTLRESGPALVKPTQTLTLTCTFSGFSLSTYGMGVGWIRQPPGKALEWLANIWWDDDKYYNPSLKNRLTISKDTSKNQVVLTMTNMDPVDTATYYCARIESSGPKYSFDYWGQGTMVTVSSGGGGSGGGGSEIQLVQSGSELKKPGASVKVSCKASGYTFTNYGMYWVKQAPGQGLEYMGWIDTETGRPTYADDFKGRFVFSLDTSVSTAYLQISSLKAEDTAVYFCARWSGDTTGIRGPWFAYWGQGTLVTVSSASTKGPSVFPLAPSSKSTSGGTAALGCLVKDYFPEPVTVSWNSGALTSGVHTFPAVLQSSGLYSLSSVVTVPSSSLGTQTYICNVNHKPSNTKVDKKVEPKSCDKTHTCPPCPAPEAAGGPSVFLFPPKPKDTLMISRTPEVTCVVVDVSHEDPEVKFNWYVDGVEVHNAKTKPREEQYNSTYRVVSVLTVLHQDWLNGKEYKCKVSNKALPAPIEKTISKAKGQPREPQVYTLPPSREEMTKNQVSLTCLVKGFYPSDIAVEWESNGQPENNYKTTPPVLDSDGSFFLYSKLTVDKSRWQQGNVFSCSVMHEALHNAYTQKSLSLSPGK
light: EIVLTQSPGTLSLSPGERATLSCRASSGSIWYSFVSWYQQKPGQAPRLLIYADDQRASGIPDRFSGSGSGTDFTLTISRLEPEDFAVYYCQSYGINIDVVFGGGTKVEIKGGSGGGGSGGDIRMTQSPSSLSASVGDRVTIECLASEDIYSDLAWYQQKPGKSPKLLIYNANGLQNGVPSRFSGSGSGTDYSLTISSLQPEDVATYFCQQYNYFPGTFGQGTKLEIKRTVAAPSVFIFPPSDEQLKSGTASVVCLLNNFYPREAKVQWKVDNALQSGNSQESVTEQDSKDSTYSLSSTLTLSKADYEKHKVYACEVTHQGLSSPVTKSFNRGEC

Experiments:
[1] = biological target: recombinant human PDGF-BB (human, UniProt P01127 82-190); assay: cell-based or functional assay
[2] = biological target: recombinant human VEGF165 (human, UniProt P15692 207-395); assay: cell-based or functional assay
recombinant human VEGF165, sequence (P15692 other isoform, or with tags, fused parts or gaps limits assumed): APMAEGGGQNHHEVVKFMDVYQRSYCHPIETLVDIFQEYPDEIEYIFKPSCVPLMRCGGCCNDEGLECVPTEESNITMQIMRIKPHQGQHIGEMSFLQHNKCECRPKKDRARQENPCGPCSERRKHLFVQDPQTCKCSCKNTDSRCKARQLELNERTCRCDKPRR

recombinant human PDGF-BB, sequence (P01127 82-190 limits assumed): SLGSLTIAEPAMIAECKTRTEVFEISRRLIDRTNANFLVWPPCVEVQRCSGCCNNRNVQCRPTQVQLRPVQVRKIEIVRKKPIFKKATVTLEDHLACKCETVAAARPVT

Binder | Potency IC50 (nM) NIH-3T3 hPDGF-BB [1] | Potency IC50 (nM) HMVEC-d hVEGF165 [2]
B1 | 0.329 nM | 0.092 nM
B2 | 0.031 nM | 0.064 nM
